Measured values as given in article PMC7923543, “Molecular mechanisms of assembly and TRIP13-mediated remodeling of the human Shieldin complex” (Proceedings of the National Academy of Sciences of the …, 2021).
Blank lines part the entries; values can stand above or below the binder they belong to.

Key:
REV7 = molecular target: T1, REV7 (human, UniProt Q9UI95 1-211); assay: crystal structure; SHLD2.3–REV7_(4) complex (peak Q2); hanging drop, 0.1 M Na acetate pH 5.6, 1.5 M Na formate, 20 °C; 3.8 Å; settings: both partners purified
T1 construct: REV7 (MAD2L2, MAD2B), human, 211 residues; also called MAD2L2; MAD2B; not shown: His6-SUMO, N-terminal, cleaved
T1 sequence (Q9UI95 whole entry): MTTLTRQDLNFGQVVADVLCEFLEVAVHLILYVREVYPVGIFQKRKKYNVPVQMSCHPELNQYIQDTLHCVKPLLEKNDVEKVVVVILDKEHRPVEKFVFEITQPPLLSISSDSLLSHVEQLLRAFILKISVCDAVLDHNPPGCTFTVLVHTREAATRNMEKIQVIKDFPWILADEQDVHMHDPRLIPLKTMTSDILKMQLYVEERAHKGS

[1] = molecular target: the molecule itself; assay: cryo-EM structure; reconstituted complexes with TRIP13(E253Q) and ATPγS, 0.3 mg/mL, Titan Krios 300 kV, RELION3
[2] = molecular target: T2, REV7 (R124A mutant), full-length (human, UniProt Q9UI95 1-211, R124A); assay: SEC-MALS; coexpressed, co-purified SHLD3(35–74)–REV7(R124A) complex; Superdex200 10/300, 20 mM Tris·HCl pH 7.5, 150 mM NaCl, 2 mM DTT; settings: both partners purified
T2 construct: REV7 (MAD2L2, MAD2B), human, 211 residues, R124A; R124A was introduced to improve crystallization; also called MAD2L2; MAD2B; source: E. coli BL21 CodonPlus(DE3)-RIL, coexpressed with the SHLD3 fragment, purified (HisTrap, HiTrap Q, Superdex 200); not shown: His6-SUMO, N-terminal, cleaved
T2 sequence (Q9UI95 whole entry R124A, the tested form may be a part): as the sequence (Q9UI95 whole entry) above, with R124A counted along it

[3] = molecular target: T2, REV7 (R124A mutant), full-length; assay: crystal structure; coexpressed, co-purified SHLD3s–REV7(R124A) complex; hanging drop, 0.2 M ammonium acetate, 0.1 M Na citrate pH 5.6, 30% PEG4000, 20 °C; 2.7 Å; settings: both partners purified

binding result (REV7): binds
B1: SHLD2 fragment (residues 1 to 19), the SHLD2 part of SHLD2.3 (domain or fragment, human, UniProt Q86V20 1-19, looked up)
chain: MSGGSQVHIFWGAPIAPLK
notes: In the crystal it stood on one chain with SHLD3(1-58); written apart for the SHLD2–SHLD3 and SHLD2–REV7 contacts; also called SHLD2(residues 1 to 19); source: E. coli BL21 CodonPlus(DE3)-RIL, as part of the SHLD2.3 fusion chain, purified with REV7

B2: TRIP13 catalytic mutant (E253Q) hexamer (enzyme)
chain: MDEAVGDLKQALPCVAESPTVHVEVHQRGSSTAKKEDINLSVRKLLNRHNIVFGDYTWTEFDEPFLTRNVQSVSIIDTELKVKDSQPIDLSACTVALHIFQLNEDGPSSENLEEETENIIAANHWVLPAAEFHGLWDSLVYDVEVKSHLLDYVMTTLLFSDKNVNSNLITWNRVVLLHGPPGTGKTSLCKALAQKLTIRLSSRYRYGQLIEINSHSLFSKWFSESGKLVTKMFQKIQDLIDDKDALVFVLIDQVESLTAARNACRAGTEPSDAIRVVNAVLTQIDQIKRHSNVVILTTSNITEKIDVAFVDRADIKQYIGPPSAAAIFKIYLSCLEELMKCQIIYPRQQLLTLRELEMIGFIENNVSKLSLLLNDISRKSEGLSGRVLRKLPFLAHALYVQAPTVTIEGFLQALSLAVDKQFEERKKLAAYI
notes: TRIP13, AAA+ ATPase, E253Q; used with ATPγS; also called TRIP13(E253Q); TRIP13 (E253Q); source: E. coli BL21 CodonPlus(DE3)-RIL, purified (HiTrap Q, Superdex 200)
stoichiometry N [1]: 6

binding result [2]: binds
B3: SHLD3 35- to 74-residue fragment (domain or fragment, human, UniProt Q6ZNX1 35-74, looked up)
chain: LSRFIPWFPYDGSKLPLRPKRSPPVISEEAAEDVKQYLTI
notes: SHLD3, human, 250 residues; residues 35-74; also called SHLD3_(35–74); source: E. coli, coexpressed with REV7(R124A), purified as the complex

binding result [3]: binds
B4: SHLD3s fusion protein (SHLD3 residues 35 to 58 and REV3 residues 1887 to 1894) (other, UniProt Q6ZNX1 35-58, looked up)
chain: LSRFIPWFPYDGSKLPLRPKRSPPREEIMATL
notes: SHLD3, human, residues 35-58; also called SHLD3_(35–58)
